From patent US6833237B1, “Genes involved in stroke response and/or regulated by FK506, proteins encoded thereby, and methods of use” (Quark Biotech, Inc., priority 2000, dated 2004)

B1: SEQ ID No 94: library-derived antisense cDNA fragment of KIAA 0538, expressed from retroviral vector pLXSN (nucleic acid, listed as Homo sapiens)
antisense: TTAAAACTGCTTACCAGTGGCTGTCTGCGCTGCGGAAGGTGAGCATCAACAACACGGGACTGTTGGGCTCCTACCACCCTGGCGTCTTCCGTGGGGACAAGTGGAGCTGCTGCCACCAAAAAGAGAAGACAGGTCAGGGCTGCGATAAGACCCGGNCACGGGTGACCCTGCAGGAGTGGAATGACCCTNTTGACCGTGACCTTGAGGCCCANCTCATCTACCGGCACCTGCTGGGCGNGGAGGCCATGCTGTG
modifications: expressed from retroviral vector pLXSN; (156)..(238) n
notes: library-derived antisense cDNA fragment of KIAA 0538, expressed from retroviral vector pLXSN
B2: full length cDNA clone of KIAA 0538: full-length KIAA0538 cDNA under the control of Tet-repressible promoter, transfected into P19 cells (nucleic acid, listed as Homo sapiens)
DNA: B1 antisense
modifications: under Tet-repressible promoter; (156)..(238) n
notes: full-length KIAA0538 cDNA under the control of Tet-repressible promoter, transfected into P19 cells

Experiments:
BE2C cells = experiment: Dopamine toxicity in BE2C cells, viability by Neutral red staining; format: cell-based, human; conditions: for cell survival at high Dopamine concentrations compared to control: BE2C cells, infection and transfection, Dopamine 24 hours, vs empty vector (FIG. 4 and 5); for protection of cells (Neutral red staining): 24 hours after exposure to high dopamine concentrations
From the text: The aim of the experiment was validation of the fragment of KIAA0538 found using Dopamine selection (SEQ. I.D. No 94) which has 253 nucleotides. A slightly smaller fragment was used , wherein the first 12 of the nucleotides of SEQ. I.D. No 94 were replaced with 5 different nucleotides. The location of this smaller fragment (having 246 nucleotides) within the KIAA0538 cDNA is from nucleotide 2020 to nucleotide 2265. For purpose of validation, cells were studied either after decrease of the gene expression by means of transfection or transduction with an antisense expressing vector (the fragment rescued from the library during the functional screening), or after increased gene expression using transfection with a full length expression vector. For experiment, BE2C cells were seeded into 6-well plates at density 100,000 cells/well. Retroviral vector expressing KIAA0538 antisense fragment (rescued in functional selection) fragment or empty vector (pLXSN) were introduced in neuroblastoma cells by two different methods—transfection using Fugen6 reagent (Rosh) or by retroviral infection. Population of transfected/transduced cells was enriched by 3 days G418 selection. BE2C cells were further treated with different concentrations of Dopamine for 24 hours and assayed for viability by Neutral red staining (FIG. 4—infection; FIG. 5—transfection).

P19 cells = experiment: Colony formation assay in P19 cells, normoxic or ischemic conditions; format: cell-based, mouse; conditions: vs empty vector (FIG. 6)
Description: FIG. 6B is a graphical representation of FIG. 6A.
The effect of the full length KIAA0538 cDNA on cell survival was tested in colony formation assay in non-differentiated P19 cells stably expressing Tet-activator (confers high level of expression from responsive promoters). P19 cells were transfected with eithet empty vector or the same vector containing the full-length KIAA0538 cDNA under the control of Tet-repressible promoter. The number of transfected cells further taken for colony formation assay was normalized by cotransfection with GFP, so that the equal number of GFP-positive cells was taken for the assay. The cells were further plated and grown in the absence of tetracycline (to ensure the gene's expression) and in the presence of hygromycin (selectable marker) for 48 hours. Then part of the plates were subjected to 16 hours ischemia (0.5% O2 and no glucose) and following the transfer into normoxic conditions were further grown until the accomplishing of hygromycin selection (death of mock-transfected cells). The cell colonies grown in plates were fixed, stained with methylene blue and photographed with a CCD camera (FIG. 6). The area of the colonies was quantified using the IMAGE-Pro program.

Molecule | cell survival at high Dopamine concentrations compared to control (BE2C cells; listed as KIAA0538 antisense fragment) | cell survival at high Dopamine concentrations compared to control (BE2C cells; listed as antisense KIAA0538 fragment) | cell survival at high Dopamine concentrations compared to control (BE2C cells; listed as antisense fragment of KIAA0538) | protection of cells (Neutral red staining) (BE2C cells; retrovirally infected BE2C cells, vs control vector pLXSN (FIG. 4)) | protection of cells (Neutral red staining) (BE2C cells; transiently transfected BE2C cells, vs control vector pLXSN (FIG. 5)) | effect on cell survival, colony formation (P19 cells; 16 hours ischemia (0.5% O2 and no glucose)) | effect on cell survival, colony formation (P19 cells; 16 hours ischemia (0.5% O2 and no glucose), listed as KIAA0538) | effect on cell survival, colony formation (P19 cells; 16 hours ischemia (0.5% O2 and no glucose), listed as full-length cDNA) | effect on cell survival, colony formation (P19 cells; normoxic conditions, listed as KIAA0538) | effect on cell survival, colony formation (P19 cells; normoxic conditions, listed as full-length cDNA)
B1 | rescue of cells from apoptotic death | protects | increased cell survival | protection | protection | – | – | – | – | –
B2 | – | – | – | – | – | very few colonies remaining | almost entirely non-viable | dramatically cytotoxic | detrimental | moderately cytotoxic
